Assay results from US20230243070A1 (Molecular Partners, published 2023).
Positions count from the first letter of the chain named.

B1: DARPin® protein comprising SEQ ID NO 230 (linked to a CD3-specific binding agent) (designed binder)
chain: GSDLGKKLLQAARAGQLDEVHELLKAGADVNAKDQHGKTPMHLAAQIGHLEIVEVLLKAGADVNAKDHIGWTPLHLAASVGHLEIVEVLLKAGADVNAKDQEGWTPLHVAAQLGHLEIVEVLLKAGADVNAQDKSGKTPADLAARAGHQDSAEVLQKAA
B2: DARPin® protein comprising SEQ ID NO 222 (linked to a CD3-specific binding agent) (designed binder)
chain: GSDLGYKLLTAAIVGQDDEVRILLAAGADVNAKDQSGLTPLHLAAAYGHLEIVEVLLKAGADVNAKDKHGRTPLHLAALEGHLEIVEVLLKAGADVNAQDQFGITPADLAAAVGHEDIAEVLQKAA
B3: DARPin® protein comprising SEQ ID NO 227 (linked to a CD3-specific binding agent) (designed binder)
chain: B2 chain with Y6Q
B4: DARPin® protein comprising SEQ ID NO 220 (linked to a CD3-specific binding agent) (designed binder)
chain: GSDLGHKLLFAASAGQDDEVRILLAAGADVNAKDESGQTPLHYAAFVGHLEIVEVLLKAGADVNAKDQWGHTPLHVAATFGHLEIVEVLLKAGADVNAQDTWGTTPADLAATFGHEDIAEVLQKAA
B5: DARPin® protein comprising SEQ ID NO 224 (linked to a CD3-specific binding agent) (designed binder)
chain: B4 chain with H6F, F10E, S13L, A14E
B6: DARPin® protein comprising SEQ ID NO 228 (linked to a CD3-specific binding agent) (designed binder)
chain: B4 chain with H6W, F10H, S13T, A14T
B7: DARPin® protein comprising SEQ ID NO 229 (linked to a CD3-specific binding agent) (designed binder)
chain: B4 chain with H6S, F10Y, S13I, A14S, E120V
B8: DARPin® protein comprising SEQ ID NO 226 (linked to a CD3-specific binding agent) (designed binder)
chain: GSDLGKKLLSAAQSGQDDEVRILLGAGADVNAKDKWGHTPLHLAAVKGHLEIAEVLLKAGADVNAKDEWGSTPLHLAASQGHLEIVEVLLKAGADVNAKDKKGATPLHLAALVGHLEIVEVLLKAVADVNAQDKSGKTPADLAARAGHQDIAEVLQKAA
B9: DARPin® protein comprising SEQ ID NO 225 (linked to a CD3-specific binding agent) (designed binder)
chain: GSDLGIKLLFAANFGQDDEVRILLAAGADVNAKDQSGRTPLHLAALWGHLEIVEVLLKAGADVNAKDVFGLTPLHIAATFGHLEIVEVLLKAGVDVNAQDYTGHTPADLAALIGHEDIAEVLQKAA
B10: DARPin® protein comprising SEQ ID NO 221 (linked to a CD3-specific binding agent) (designed binder)
chain: GSDLGQKLLLAAAIGQDDEVRILLAAGADVNAKDESGHTPLHYAAHVGHLEIVEVLLKAGDVNAKDHRGFTPLHVAAQIGHLEIVEVLLKAGADVNAQDNWGITPADLAAWWGHEDIAEVLQKAA
B11: DARPin® protein #28 (designed binder)
chain: MRGSHHHHHHGSDLGQKLLKAAALGQDDEVRDLLKAGADVNAKDYQGQTPLHLAAWTGHLEIVEVLLKAGADVNAKDHFGYTPLHIAAHFGHLEIVEVLLKAGADVNAQDAAGQTPADLAAAEGHEDIAEVLQKAA
B12: DARPin® protein #27 (designed binder)
chain: MRGSHHHHHHGSDLGFKLLQAAHYGQDDEVRILLAAGADVNAKDEYGRTPLHHAALKGHLEIVEVLLKAGADVNAKDEFGTTPLHYAAIFGHLEIVEVLLKAGADVNAQDSSGFTPADLAALVGHEDIAEVLQKAA
B13: DARPin® protein #20 (designed binder)
chain: MRGSHHHHHHGSDLGKKLLQAARAGQLDEVRELLKAGADVNAKDQSGATPLHLAAFRGHLEIVEVLLKAGADVNAKDAAGYTPLHIAAVYGHLEIVEVLLKAGADVNAKDSAGETPLHLAAYAGHLEIVEVLLKAGADVNAQDKSGKTPADLAARAGHQDIAEVLQKAA
B14: DARPin® protein #22 (designed binder)
chain: B13 chain with Q45A, S46I, A48F, R57S, A78V, I86V, V89L, E94V, S111K, Y122F
B15: DARPin® protein #26 (designed binder)
chain: MRGSHHHHHHGSDLGEKLLFAAFIGQDDEVRILLAAGADVNAKDEYGHTPLHAAAQHGHLEIVEVLLKAGADVNAKDQFGLTPLHIAAIFGHLEIVEVLLKAGADVNAQDHAGYTPADLAAWQGHEDIAEVLQKAA
B16: SEQ ID NO 157 (designed binder)
chain: GSDLGYKLLYAALFGQDDEVRILLAAGADVNAKDYFGKTPLHIAAYYGHLEIVEVLLKAGADVNAKDRYGITPLHLAALEGHLEIVEVLLKAGADVNAQDTDGITPADLAAWEGHEDIAEVLQKAA
B17: SEQ ID NO 169 (designed binder)
chain: GSDLGKKLLQAARAGQLDEVRELLKAGADVNAKDHWGKTPLHLAAYEGHLEIVEVLLKAGADVNAKDLFGLTPLHLAAIEGHLEIVEVLLKAGADVNAKDSFGYTPLHVAAQVGHLEIVEVLLKAGADVNAQDKSGKTPADLAARAGHQDIAEVLQKAA
B18: SEQ ID NO 167 (designed binder)
chain: GSDLGKKLLQAARAGQLDEVRELLKAGADVNAKDSSGWTPLHLAAYTGHLEIVEVLLKAGADVNAKDQWGLTPLHLAALEGHLEIVEVLLKAGADVNAKDHTGKTPLHLAAQQGHLEIVEVLLKAGADVNAQDKSGKTPADLAARAGHQDIAEVLQKAA
B19: SEQ ID NO 165 (designed binder)
chain: GSDLGEKLLQAALEGQDDEVRELLKAGADVNAKDLVGWTPLHIAAYRGHLEIVEVLLKAGADVNAKDWVGLTPLHLAAIEGHLEIVEVLLKAGADVNAQDREGKTPADLAALLGHEDIAEVLQKAA
B20: SEQ ID NO 172 (designed binder)
chain: GSDLGKKLLQAARAGQLDEVRELLKAGADVNAKDEWGATPLHLAAYAGHLEIVEVLLKAGADVNAKDRWGLTPLHVAAVEGHLEIVEVLLKAGADVNAKDIEGETPLHIAAFTGHLEIVEVLLKAGADVNAQDKSGKTPADLAARAGHQDVAEVLQKAA
B21: SEQ ID NO 160 (designed binder)
chain: GSDLGKKLLQAAQAGQDDEVRELLKAGADVNAKDEWGRTPLHVAAYWGHLEIVEVLLKAGADVNAKDSFGLTPLHLAAIEGHLEIVEVLLKAGADVNAQDQQGATPADLAALLGHEDIAEVLQKAA

The binders below were run against T1, HBVc18pMHC, biotinylated recombinant complex (HLA-A*0201: HBVc18) (human; Hepatitis B virus) (assay: SPR (ProteOn)).
T1 construct: also called HBVc18 peptide-MHC complex

Row | Binder | Kd
1 | B1 | 9.33 nM
2 | B2 | 7.15 nM
3 | B3 | 7.1 nM
4 | B4 | 4.65 nM
5 | B5 | 0.736 nM
6 | B6 | 4.72 nM
7 | B7 | 1.03 nM
8 | B8 | 13.8 nM
9 | B9 | 9.23 nM
10 | B10 | 0.369 nM

Each binder was assayed against T2, NYESOpMHC (HLA-A*0201:NYESO1-9V), biotinylated recombinant complex (human) (assay: SPR (ProteOn), biotinylated pMHC on NLC chip, PBS with Tween).
T2 construct: also called NY-ESO-1 peptide-MHC complex

Row | Binder | Kd
11 | B11 | 2.57 nM
12 | B12 | 0.494 nM
13 | B13 | 5.79 nM
14 | B14 | 0.0685 nM
15 | B15 | 1.29 nM

Each binder was assayed against T3, MAGEA3pMHC, biotinylated recombinant complex (HLA-A*0101, MAGE-A3 peptide) (human) (assay: ribosome display selection, crude extract HTRF).
T3 construct: also called MAGE-A3 peptide-MHC complex

Row | Binder | binding result
16 | B16 | binds
17 | B17 | binds
18 | B18 | binds
19 | B19 | binds
20 | B20 | binds
21 | B21 | binds

The binders below were run against T4, NYESOpMHC on T2 cells pulsed with NY-ESO-1-9V (157-165) peptide (assay: not given).

Row | Binder | EC50 (read off the curve)
22 | B14 | ~3 nM

Target: T4, NYESOpMHC on T2 cells pulsed with …
Assay: not given
Remark: another data set of the same source

Row | Binder | EC50
23 | B13 | 20.6 nM
24 | B14 | 3.7 nM

What follows are binders tested against EBNApMHC (HLA-A*0201:EBNA-1), biotinylated recombinant complex (human; Epstein Barr virus) (assay: SPR (ProteOn), biotinylated pMHC on NLC chip).

Row | Binder | binding result
25 | B11 | no binding (tested: 3.7 nM to 300 nM, or 250 nM single trace)
26 | B12 | no binding (tested: 3.7 nM to 300 nM, or 250 nM single trace)
27 | B13 | no binding (tested: 3.7 nM to 300 nM, or 250 nM single trace)
28 | B14 | no binding (tested: 3.7 nM to 300 nM, or 250 nM single trace)
29 | B15 | no binding (tested: 3.7 nM to 300 nM, or 250 nM single trace)

The binders below were run against NYESOAApMHC (HLA-A*0201:NYESO1-9VAA), biotinylated recombinant complex (human) (assay: SPR (ProteOn), biotinylated pMHC on NLC chip).

Row | Binder | binding result
30 | B11 | no binding
31 | B12 | no binding
32 | B13 | no binding
33 | B14 | no binding
34 | B15 | no binding
